Paper PMC3460628

Test system: T1, His-ChvI(D52E) D52E (Agrobacterium tumefaciens C58), ORF:0a874367
T1 sequence: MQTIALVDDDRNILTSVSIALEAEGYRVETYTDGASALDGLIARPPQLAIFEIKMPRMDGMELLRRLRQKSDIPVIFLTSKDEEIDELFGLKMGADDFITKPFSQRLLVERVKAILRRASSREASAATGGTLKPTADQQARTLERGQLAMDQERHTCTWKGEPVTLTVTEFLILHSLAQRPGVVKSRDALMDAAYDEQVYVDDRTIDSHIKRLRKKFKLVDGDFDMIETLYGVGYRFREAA
Assay: EMSA

Sequence | binding
TCGAGGAGTAGTCTATCCCCAGAAAATAGTAATGGATTTTTTGTAGTTACTTCCCTTACGTGAGGCTATTAATCAGACAGACTTATTCAAAATGTGTCTAAATTGTGGCGTCTACTCCCTAATCTAATCTGATAAAAAATAAACTTCGGGGTGGACAACCCGGTTTCATCATCATAGTTATTCCACGTCACGTTGTGGAATGAACCCGGGCAGGAGGCTCATTGCATGTCGGTACCCC (double strand) [imp-hcp intergenic region (T6SS regulatory region), 230 bp] | binds
TCCGCATCCATGGGAATAGCAGTCTTTCCCCACCTTGCCTCCACGCTGGAGCAGCTTTTCGACAGGGCAGACTATGCCCTCTACCACGCCAAGAAAACCCGGCGTGGCGATGCCGTTCTGTTCGATGCGGAACACGAAAAGCAGATCAATATCGAAGCCCGCATTGAGCATCTGCTCAAGCAGAGCGATCTGAAAAACGAACTTTCGGTGATGTTTCAGCCGATCGTGGATATACGCGACGGAAGGATC (double strand) [atu4353 coding region control fragment] | no binding
